From patent publication US20130089560A1 come the findings set out here.

This experiment addresses human BMPR1A, endogenous on human Saos2 cells (human) (UniProt P36894). Description: cell-based or functional assay.
Chain of UniProt P36894 (P36894 24-532 limits assumed): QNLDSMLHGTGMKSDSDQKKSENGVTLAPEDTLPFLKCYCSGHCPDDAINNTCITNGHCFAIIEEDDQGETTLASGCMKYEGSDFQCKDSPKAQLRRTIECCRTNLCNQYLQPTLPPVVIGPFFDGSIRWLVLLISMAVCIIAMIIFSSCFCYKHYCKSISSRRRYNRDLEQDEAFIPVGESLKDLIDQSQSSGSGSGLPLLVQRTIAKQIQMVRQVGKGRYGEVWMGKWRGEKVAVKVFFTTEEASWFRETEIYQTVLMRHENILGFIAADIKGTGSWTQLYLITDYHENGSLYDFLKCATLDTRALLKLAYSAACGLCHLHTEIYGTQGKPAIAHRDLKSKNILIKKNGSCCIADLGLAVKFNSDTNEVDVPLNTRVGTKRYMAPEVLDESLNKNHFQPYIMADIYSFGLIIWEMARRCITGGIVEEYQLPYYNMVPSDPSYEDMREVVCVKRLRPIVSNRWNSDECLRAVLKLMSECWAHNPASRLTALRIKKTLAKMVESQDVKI

B1: anti-BMPR1A antibody 5M107 (antibody, part only; not given: light chain and constant regions, V domains shown, part only)
VH: EVQLQQSGPELVKPGTSVKISCKASGYSFTGYYMHWVKQSQVKSLEWIGRINPDNGGRTYNQIFKDKASLTVHKSSSTAYMELHSLTSDDSAVYYCTRERGQYGNYGGFSDWGQGTLVT
B1 yielded a Sp7 gene expression levels in Saos2 cells (qPCR, relative to control antibody) of 2.4 fold.
